In the assay the target is PTHR1 receptor.

* marks the point of attachment. Palmitoyl = CCCCCCCCCCCCCCCC(=O)*

Sequence of PTHR1 receptor (P25961 whole entry): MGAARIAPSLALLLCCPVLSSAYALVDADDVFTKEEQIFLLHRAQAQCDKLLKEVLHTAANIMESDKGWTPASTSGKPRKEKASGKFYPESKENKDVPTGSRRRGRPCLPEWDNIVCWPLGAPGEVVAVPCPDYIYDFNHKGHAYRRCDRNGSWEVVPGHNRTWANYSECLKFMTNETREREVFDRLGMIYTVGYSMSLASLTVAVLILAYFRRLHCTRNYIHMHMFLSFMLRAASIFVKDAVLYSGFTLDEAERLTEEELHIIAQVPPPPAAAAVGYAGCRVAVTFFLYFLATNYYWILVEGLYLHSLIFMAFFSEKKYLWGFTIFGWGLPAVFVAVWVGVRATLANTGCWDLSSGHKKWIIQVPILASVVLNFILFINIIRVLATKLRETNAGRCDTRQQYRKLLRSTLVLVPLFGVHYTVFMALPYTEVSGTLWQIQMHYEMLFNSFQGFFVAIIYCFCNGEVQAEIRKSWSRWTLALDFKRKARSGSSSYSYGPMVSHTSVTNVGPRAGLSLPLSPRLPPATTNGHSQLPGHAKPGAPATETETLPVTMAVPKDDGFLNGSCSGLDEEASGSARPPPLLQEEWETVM

B1: Compound 33 (peptide)
peptide: Palmitoyl-HSLIFMAFFSEKKYL-NH2
SMILES: CCCCCCCCCCCCCCCC(=O)N[C@@H](Cc1c[nH]cn1)C(=O)N[C@@H](CO)C(=O)N[C@@H](CC(C)C)C(=O)N[C@H](C(=O)N[C@@H](Cc1ccccc1)C(=O)N[C@@H](CCSC)C(=O)N[C@@H](C)C(=O)N[C@@H](Cc1ccccc1)C(=O)N[C@@H](Cc1ccccc1)C(=O)N[C@@H](CO)C(=O)N[C@@H](CCC(=O)O)C(=O)N[C@@H](CCCCN)C(=O)N[C@@H](CCCCN)C(=O)N[C@@H](Cc1ccc(O)cc1)C(=O)N[C@@H](CC(C)C)C(N)=O)[C@@H](C)CC
Regarding B1, the Fold Shift of EC50 came out at 1.1 fold and the Inhibition of Maximal Response amounted to 27.5%.

B2: Compound 51 (peptide)
peptide: Palmitoyl-RETNAGRSDTRQQYRKLLKS-NH2
SMILES: CCCCCCCCCCCCCCCC(=O)N[C@@H](CCCNC(=N)N)C(=O)N[C@@H](CCC(=O)O)C(=O)N[C@H](C(=O)N[C@@H](CC(N)=O)C(=O)N[C@@H](C)C(=O)NCC(=O)N[C@@H](CCCNC(=N)N)C(=O)N[C@@H](CO)C(=O)N[C@@H](CC(=O)O)C(=O)N[C@H](C(=O)N[C@@H](CCCNC(=N)N)C(=O)N[C@@H](CCC(N)=O)C(=O)N[C@@H](CCC(N)=O)C(=O)N[C@@H](Cc1ccc(O)cc1)C(=O)N[C@@H](CCCNC(=N)N)C(=O)N[C@@H](CCCCN)C(=O)N[C@@H](CC(C)C)C(=O)N[C@@H](CC(C)C)C(=O)N[C@@H](CCCCN)C(=O)N[C@@H](CO)C(N)=O)[C@@H](C)O)[C@@H](C)O
Turning to B2, the Fold Shift of EC50 is 12.4 fold and the Inhibition of Maximal Response is -0.015.

B3: Compound 2 (peptide)
peptide: Palmitoyl-RRLHSTRNYIH-NH2
SMILES: CCCCCCCCCCCCCCCC(=O)N[C@@H](CCCNC(=N)N)C(=O)N[C@@H](CCCNC(=N)N)C(=O)N[C@@H](CC(C)C)C(=O)N[C@@H](Cc1c[nH]cn1)C(=O)N[C@@H](CO)C(=O)N[C@H](C(=O)N[C@@H](CCCNC(=N)N)C(=O)N[C@@H](CC(N)=O)C(=O)N[C@@H](Cc1ccc(O)cc1)C(=O)N[C@H](C(=O)N[C@@H](Cc1c[nH]cn1)C(N)=O)[C@@H](C)CC)[C@@H](C)O
For B3, the Fold Shift of EC50 was found to be 1.9 fold and the Inhibition of Maximal Response is -24.9%.

B4: Compound 53 (peptide)
peptide: Palmitoyl-KLRETNAGRSDTRQQY-NH2
SMILES: CCCCCCCCCCCCCCCC(=O)N[C@@H](CCCCN)C(=O)N[C@@H](CC(C)C)C(=O)N[C@@H](CCCNC(=N)N)C(=O)N[C@@H](CCC(=O)O)C(=O)N[C@H](C(=O)N[C@@H](CC(N)=O)C(=O)N[C@@H](C)C(=O)NCC(=O)N[C@@H](CCCNC(=N)N)C(=O)N[C@@H](CO)C(=O)N[C@@H](CC(=O)O)C(=O)N[C@H](C(=O)N[C@@H](CCCNC(=N)N)C(=O)N[C@@H](CCC(N)=O)C(=O)N[C@@H](CCC(N)=O)C(=O)N[C@@H](Cc1ccc(O)cc1)C(N)=O)[C@@H](C)O)[C@@H](C)O
In the case of B4, the Fold Shift of EC50 turned out to be 2.1 fold and the Inhibition of Maximal Response came to 6.4%.

B5: Compound 39 (peptide)
peptide: Palmitoyl-LYLHSLIFMAFFSEKKYL-NH2
SMILES: CCCCCCCCCCCCCCCC(=O)N[C@@H](CC(C)C)C(=O)N[C@@H](Cc1ccc(O)cc1)C(=O)N[C@@H](CC(C)C)C(=O)N[C@@H](Cc1c[nH]cn1)C(=O)N[C@@H](CO)C(=O)N[C@@H](CC(C)C)C(=O)N[C@H](C(=O)N[C@@H](Cc1ccccc1)C(=O)N[C@@H](CCSC)C(=O)N[C@@H](C)C(=O)N[C@@H](Cc1ccccc1)C(=O)N[C@@H](Cc1ccccc1)C(=O)N[C@@H](CO)C(=O)N[C@@H](CCC(=O)O)C(=O)N[C@@H](CCCCN)C(=O)N[C@@H](CCCCN)C(=O)N[C@@H](Cc1ccc(O)cc1)C(=O)N[C@@H](CC(C)C)C(N)=O)[C@@H](C)CC
With B5, the Fold Shift of EC50 came out at 1.3 fold and the Inhibition of Maximal Response amounted to 29.3%.

B6: Compound 37 (peptide)
peptide: Palmitoyl-LHSLIFMAFFSEKKYLWGFT-NH2
SMILES: CCCCCCCCCCCCCCCC(=O)N[C@@H](CC(C)C)C(=O)N[C@@H](Cc1c[nH]cn1)C(=O)N[C@@H](CO)C(=O)N[C@@H](CC(C)C)C(=O)N[C@H](C(=O)N[C@@H](Cc1ccccc1)C(=O)N[C@@H](CCSC)C(=O)N[C@@H](C)C(=O)N[C@@H](Cc1ccccc1)C(=O)N[C@@H](Cc1ccccc1)C(=O)N[C@@H](CO)C(=O)N[C@@H](CCC(=O)O)C(=O)N[C@@H](CCCCN)C(=O)N[C@@H](CCCCN)C(=O)N[C@@H](Cc1ccc(O)cc1)C(=O)N[C@@H](CC(C)C)C(=O)N[C@@H](Cc1c[nH]c2ccccc12)C(=O)NCC(=O)N[C@@H](Cc1ccccc1)C(=O)N[C@H](C(N)=O)[C@@H](C)O)[C@@H](C)CC
As for B6, the Fold Shift of EC50 is 1.1 fold and the Inhibition of Maximal Response was 35.6%.

B7: Compound 52 (peptide)
peptide: Palmitoyl-TNAGRSDTRQQYRKLLKSTL-NH2
SMILES: CCCCCCCCCCCCCCCC(=O)N[C@H](C(=O)N[C@@H](CC(N)=O)C(=O)N[C@@H](C)C(=O)NCC(=O)N[C@@H](CCCNC(=N)N)C(=O)N[C@@H](CO)C(=O)N[C@@H](CC(=O)O)C(=O)N[C@H](C(=O)N[C@@H](CCCNC(=N)N)C(=O)N[C@@H](CCC(N)=O)C(=O)N[C@@H](CCC(N)=O)C(=O)N[C@@H](Cc1ccc(O)cc1)C(=O)N[C@@H](CCCNC(=N)N)C(=O)N[C@@H](CCCCN)C(=O)N[C@@H](CC(C)C)C(=O)N[C@@H](CC(C)C)C(=O)N[C@@H](CCCCN)C(=O)N[C@@H](CO)C(=O)N[C@H](C(=O)N[C@@H](CC(C)C)C(N)=O)[C@@H](C)O)[C@@H](C)O)[C@@H](C)O
As for B7, the Fold Shift of EC50 was determined as 11.1 fold and the Inhibition of Maximal Response came to 1.7%.

B8: Compound 14 (peptide)
peptide: Palmitoyl-LAYFRRLHSTRN-NH2
SMILES: CCCCCCCCCCCCCCCC(=O)N[C@@H](CC(C)C)C(=O)N[C@@H](C)C(=O)N[C@@H](Cc1ccc(O)cc1)C(=O)N[C@@H](Cc1ccccc1)C(=O)N[C@@H](CCCNC(=N)N)C(=O)N[C@@H](CCCNC(=N)N)C(=O)N[C@@H](CC(C)C)C(=O)N[C@@H](Cc1c[nH]cn1)C(=O)N[C@@H](CO)C(=O)N[C@H](C(=O)N[C@@H](CCCNC(=N)N)C(=O)N[C@@H](CC(N)=O)C(N)=O)[C@@H](C)O
For the molecule B8, the Fold Shift of EC50 is 0.7 fold and the Inhibition of Maximal Response worked out at 15.2%.

B9: Compound 38 (peptide)
peptide: Palmitoyl-LYLHSLIFMAFFSEKKYLWG-NH2
SMILES: CCCCCCCCCCCCCCCC(=O)N[C@@H](CC(C)C)C(=O)N[C@@H](Cc1ccc(O)cc1)C(=O)N[C@@H](CC(C)C)C(=O)N[C@@H](Cc1c[nH]cn1)C(=O)N[C@@H](CO)C(=O)N[C@@H](CC(C)C)C(=O)N[C@H](C(=O)N[C@@H](Cc1ccccc1)C(=O)N[C@@H](CCSC)C(=O)N[C@@H](C)C(=O)N[C@@H](Cc1ccccc1)C(=O)N[C@@H](Cc1ccccc1)C(=O)N[C@@H](CO)C(=O)N[C@@H](CCC(=O)O)C(=O)N[C@@H](CCCCN)C(=O)N[C@@H](CCCCN)C(=O)N[C@@H](Cc1ccc(O)cc1)C(=O)N[C@@H](CC(C)C)C(=O)N[C@@H](Cc1c[nH]c2ccccc12)C(=O)NCC(N)=O)[C@@H](C)CC
On to B9, for which the Fold Shift of EC50 was 1.1 fold and the Inhibition of Maximal Response was determined as 21.9%.

B10: Compound 10 (peptide)
peptide: Palmitoyl-LAYFRRLHSTRNYIHMH-NH2
SMILES: CCCCCCCCCCCCCCCC(=O)N[C@@H](CC(C)C)C(=O)N[C@@H](C)C(=O)N[C@@H](Cc1ccc(O)cc1)C(=O)N[C@@H](Cc1ccccc1)C(=O)N[C@@H](CCCNC(=N)N)C(=O)N[C@@H](CCCNC(=N)N)C(=O)N[C@@H](CC(C)C)C(=O)N[C@@H](Cc1c[nH]cn1)C(=O)N[C@@H](CO)C(=O)N[C@H](C(=O)N[C@@H](CCCNC(=N)N)C(=O)N[C@@H](CC(N)=O)C(=O)N[C@@H](Cc1ccc(O)cc1)C(=O)N[C@H](C(=O)N[C@@H](Cc1c[nH]cn1)C(=O)N[C@@H](CCSC)C(=O)N[C@@H](Cc1c[nH]cn1)C(N)=O)[C@@H](C)CC)[C@@H](C)O
For B10, the Fold Shift of EC50 amounted to 1.1 fold and the Inhibition of Maximal Response stood at 24.1%.

B11: Compound 12 (peptide)
peptide: Palmitoyl-SSYFRRLHSTRNYIH-NH2
SMILES: CCCCCCCCCCCCCCCC(=O)N[C@@H](CO)C(=O)N[C@@H](CO)C(=O)N[C@@H](Cc1ccc(O)cc1)C(=O)N[C@@H](Cc1ccccc1)C(=O)N[C@@H](CCCNC(=N)N)C(=O)N[C@@H](CCCNC(=N)N)C(=O)N[C@@H](CC(C)C)C(=O)N[C@@H](Cc1c[nH]cn1)C(=O)N[C@@H](CO)C(=O)N[C@H](C(=O)N[C@@H](CCCNC(=N)N)C(=O)N[C@@H](CC(N)=O)C(=O)N[C@@H](Cc1ccc(O)cc1)C(=O)N[C@H](C(=O)N[C@@H](Cc1c[nH]cn1)C(N)=O)[C@@H](C)CC)[C@@H](C)O
For B11, the Fold Shift of EC50 came to 0.9 fold and the Inhibition of Maximal Response turned out to be 26.6%.

B12: Compound 13 (peptide)
peptide: Palmitoyl-GGYFRRLHSTRNYIH-NH2
SMILES: CCCCCCCCCCCCCCCC(=O)NCC(=O)NCC(=O)N[C@@H](Cc1ccc(O)cc1)C(=O)N[C@@H](Cc1ccccc1)C(=O)N[C@@H](CCCNC(=N)N)C(=O)N[C@@H](CCCNC(=N)N)C(=O)N[C@@H](CC(C)C)C(=O)N[C@@H](Cc1c[nH]cn1)C(=O)N[C@@H](CO)C(=O)N[C@H](C(=O)N[C@@H](CCCNC(=N)N)C(=O)N[C@@H](CC(N)=O)C(=O)N[C@@H](Cc1ccc(O)cc1)C(=O)N[C@H](C(=O)N[C@@H](Cc1c[nH]cn1)C(N)=O)[C@@H](C)CC)[C@@H](C)O
For the molecule B12, the Fold Shift of EC50 amounted to 0.7 fold and the Inhibition of Maximal Response is 29.2%.

B13: Compound 11 (peptide)
peptide: Palmitoyl-GSYFRRLHSTRNYIH-NH2
SMILES: CCCCCCCCCCCCCCCC(=O)NCC(=O)N[C@@H](CO)C(=O)N[C@@H](Cc1ccc(O)cc1)C(=O)N[C@@H](Cc1ccccc1)C(=O)N[C@@H](CCCNC(=N)N)C(=O)N[C@@H](CCCNC(=N)N)C(=O)N[C@@H](CC(C)C)C(=O)N[C@@H](Cc1c[nH]cn1)C(=O)N[C@@H](CO)C(=O)N[C@H](C(=O)N[C@@H](CCCNC(=N)N)C(=O)N[C@@H](CC(N)=O)C(=O)N[C@@H](Cc1ccc(O)cc1)C(=O)N[C@H](C(=O)N[C@@H](Cc1c[nH]cn1)C(N)=O)[C@@H](C)CC)[C@@H](C)O
For the molecule B13, the Fold Shift of EC50 stood at 1.1 fold and the Inhibition of Maximal Response amounted to 19.8%.

The values are drawn from patent US20110294738A1, “PTHR1 RECEPTOR COMPOUNDS” (priority 2008, published 2011).
